This is an account of results in patent publication US20110104176A1 (SAMSUNG ELECTRONICS, published 2011).

For test [1], the target named is human c-Met/Fc fusion protein (R&D Systems) (human) (UniProt P08581). The experiment in a line: ELISA, c-Met/Fc coated at 2 ug/ml, goat anti-mouse IgG-HRP, OPD.
Test [2] deals with mouse c-Met/Fc fusion protein (R&D Systems) (mouse) (UniProt P16056). The test is described as above.
For test [3], the target named is T1, human c-Met protein (immobilized on a CM5 chip) (human, UniProt P08581 25-932, limits assumed). The experiment in a line: SPR (Biacore), human c-Met immobilized on a CM5 chip, antibody in flow. Here is the method:
(§1) A surface plasmon resonance (SPR) device (Biacore) was used to measure the binding affinity of the monoclonal antibody AbF46 prepared in Example 1 to human c-Met protein. The human c-Met protein was first immobilized on a CM5 chip, and the monoclonal antibody AbF46 was allowed to flow into a microfluidic chamber to obtain kₐ (on) and kb (off) values as illustrated in FIG. 2. Then, the Kd value was calculated from the kₐ and kb values. […] In addition, the Chi² value, which represents the reliability of the experiment, was 0.822 (in a Biacore analysis method, a Chi² value of 1 or less indicates high reliability of the data).

The target of test [4] is T1, human c-Met protein (immobilized on a …). The test is described as follows: SPR (Biacore), human c-Met immobilized on a CM5 chip, AbF46 flowed over. Here is the method: as §1

T1 sequence (P08581 25-932 limits assumed): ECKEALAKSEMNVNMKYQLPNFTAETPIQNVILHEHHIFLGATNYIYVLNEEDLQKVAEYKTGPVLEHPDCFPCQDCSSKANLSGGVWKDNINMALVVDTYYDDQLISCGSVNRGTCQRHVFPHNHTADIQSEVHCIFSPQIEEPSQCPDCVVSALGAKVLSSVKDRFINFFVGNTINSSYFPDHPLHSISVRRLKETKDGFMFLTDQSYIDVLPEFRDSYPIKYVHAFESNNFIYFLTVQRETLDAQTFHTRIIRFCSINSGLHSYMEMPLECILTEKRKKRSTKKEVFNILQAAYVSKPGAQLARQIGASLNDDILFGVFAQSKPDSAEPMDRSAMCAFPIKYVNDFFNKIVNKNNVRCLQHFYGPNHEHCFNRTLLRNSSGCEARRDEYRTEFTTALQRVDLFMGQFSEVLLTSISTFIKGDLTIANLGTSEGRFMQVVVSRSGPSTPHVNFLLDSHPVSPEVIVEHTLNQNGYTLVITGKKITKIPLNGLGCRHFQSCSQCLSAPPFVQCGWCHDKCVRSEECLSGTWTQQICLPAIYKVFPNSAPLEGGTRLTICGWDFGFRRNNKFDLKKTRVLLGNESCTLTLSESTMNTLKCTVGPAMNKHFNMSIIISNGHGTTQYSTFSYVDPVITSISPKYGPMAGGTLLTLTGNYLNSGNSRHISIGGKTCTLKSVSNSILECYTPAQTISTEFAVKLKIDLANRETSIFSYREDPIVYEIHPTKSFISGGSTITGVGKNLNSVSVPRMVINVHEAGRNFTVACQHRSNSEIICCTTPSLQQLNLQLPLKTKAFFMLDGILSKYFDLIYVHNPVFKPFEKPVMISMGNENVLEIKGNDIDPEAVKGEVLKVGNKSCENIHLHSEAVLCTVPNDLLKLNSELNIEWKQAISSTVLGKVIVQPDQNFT
human c-Met/Fc fusion protein (R&D Systems) (human), sequence (P08581 25-932 limits assumed): as above
mouse c-Met/Fc fusion protein (R&D Systems) (mouse), sequence (P16056 25-931 limits assumed): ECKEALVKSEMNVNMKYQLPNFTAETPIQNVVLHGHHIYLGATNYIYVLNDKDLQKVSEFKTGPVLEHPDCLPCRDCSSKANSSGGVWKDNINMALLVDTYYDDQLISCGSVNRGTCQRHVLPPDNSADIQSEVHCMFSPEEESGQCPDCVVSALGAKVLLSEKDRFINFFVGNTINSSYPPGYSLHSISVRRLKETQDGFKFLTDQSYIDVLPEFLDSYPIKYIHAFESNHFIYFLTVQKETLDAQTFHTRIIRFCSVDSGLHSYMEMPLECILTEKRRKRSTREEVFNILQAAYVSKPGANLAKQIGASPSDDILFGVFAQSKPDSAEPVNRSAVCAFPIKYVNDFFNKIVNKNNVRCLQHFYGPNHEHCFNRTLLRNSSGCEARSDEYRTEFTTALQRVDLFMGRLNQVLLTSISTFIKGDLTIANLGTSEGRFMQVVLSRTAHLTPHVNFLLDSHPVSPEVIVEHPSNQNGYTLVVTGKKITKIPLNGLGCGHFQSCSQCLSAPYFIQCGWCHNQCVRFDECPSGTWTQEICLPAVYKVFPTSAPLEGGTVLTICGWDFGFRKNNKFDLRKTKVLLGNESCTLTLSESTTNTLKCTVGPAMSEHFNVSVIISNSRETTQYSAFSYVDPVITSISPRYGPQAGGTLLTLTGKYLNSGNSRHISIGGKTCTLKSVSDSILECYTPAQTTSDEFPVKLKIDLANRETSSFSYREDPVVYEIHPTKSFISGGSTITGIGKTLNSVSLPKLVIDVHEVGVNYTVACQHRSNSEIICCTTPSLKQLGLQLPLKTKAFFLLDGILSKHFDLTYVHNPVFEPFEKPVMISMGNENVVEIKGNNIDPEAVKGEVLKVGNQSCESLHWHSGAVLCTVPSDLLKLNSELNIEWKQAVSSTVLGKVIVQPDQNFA

Consider “5D5 (Genentech), monoclonal antibody against human c-Met”, for which the absorption at 450 nm in test [1] was 0.373; in test [2], 0.113.

B1: monoclonal antibody AbF46 (antibody, IgG1, V domains shown)
VH: EVKLVESGGGLVQPGGSLRLSCATSGFTFTDYYMSWVRQPPGKALEWLGFIRNKANGYTTEYSASVKGRFTISRDNSQSILYLQMDTLRAEDSATYYCARDNWFAYWGQGTLVTVSA
VL: DILMTQSPSSLTVSAGEKVTMSCKSSQSLLASGNQNNYLAWHQQKPGRSPKMLIIWASTRVSGVPDRFIGSGSGTDFTLTINSVQAEDLAVYYCQQSYSAPLTFGAGTKLELKR
notes: also called SAIT-MET-AbF46 (hybridoma cell line); antibody of hybridoma KCLRF-BP-00220
For B1, the Kd in test [3] is 4 nM. Besides, in test [4], the koff stood at 0.00155 s⁻¹ and the kon is 385000 M⁻¹ s⁻¹.
